This passage reports binding result and Kd results from publication PMC8582077.

One data set deals with myoglobin (horse, UniProt P68082 2-154). Kind of data set: EMSA.
Data set [1] addresses MERS-CoV Spike S1 protein (Middle East respiratory syndrome …, UniProt K9N5Q8 18-751). The experiment in a line: bead-based fluorescence binding assay.

MERS-CoV Spike S1 protein, sequence (K9N5Q8 18-751): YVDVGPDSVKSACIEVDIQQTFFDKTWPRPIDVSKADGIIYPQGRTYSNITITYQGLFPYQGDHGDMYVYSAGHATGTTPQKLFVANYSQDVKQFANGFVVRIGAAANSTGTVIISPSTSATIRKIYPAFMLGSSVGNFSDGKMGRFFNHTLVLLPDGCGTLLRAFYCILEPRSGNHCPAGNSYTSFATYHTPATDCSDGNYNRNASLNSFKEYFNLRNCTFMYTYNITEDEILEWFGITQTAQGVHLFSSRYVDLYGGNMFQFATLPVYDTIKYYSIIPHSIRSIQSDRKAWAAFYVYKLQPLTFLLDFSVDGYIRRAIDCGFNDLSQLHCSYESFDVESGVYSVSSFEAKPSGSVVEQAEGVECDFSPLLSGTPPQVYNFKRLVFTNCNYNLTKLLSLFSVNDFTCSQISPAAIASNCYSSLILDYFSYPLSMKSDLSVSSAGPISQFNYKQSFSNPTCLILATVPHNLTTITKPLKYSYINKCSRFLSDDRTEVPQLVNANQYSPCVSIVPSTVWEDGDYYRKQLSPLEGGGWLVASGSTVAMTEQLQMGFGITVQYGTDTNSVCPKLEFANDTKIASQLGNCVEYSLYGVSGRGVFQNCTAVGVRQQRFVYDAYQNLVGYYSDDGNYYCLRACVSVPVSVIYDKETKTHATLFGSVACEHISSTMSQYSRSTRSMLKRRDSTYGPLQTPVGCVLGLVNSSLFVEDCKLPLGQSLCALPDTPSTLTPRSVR
myoglobin, sequence (P68082 2-154): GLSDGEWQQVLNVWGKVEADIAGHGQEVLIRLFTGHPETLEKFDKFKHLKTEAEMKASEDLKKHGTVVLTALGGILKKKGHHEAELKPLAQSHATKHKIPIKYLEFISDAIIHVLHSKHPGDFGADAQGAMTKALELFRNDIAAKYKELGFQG

B1: MF MERS aptamer (3WJ of MERSapt-3WJa, MB/3WJb, NH2/3WJc) (structured_DNA)
DNA 1: TGACACCGTACCTGCTCTGCACTTCCTTCACCAGAAACCTGCACATCTTCGCCGCGTGAAGCACGCCAAGGGACTATTTGCCATGTGTATGTGGG
DNA 2: TTTGGGTAGGGCGGGTTGGGCCCACATACTTTGTTGATCC
DNA 3: GGATCAATCATGGCAA
modifications: 5' NH2 on S6
B1: the binding result with myoglobin is on record as “no binding”.

B2: S-12 aptamer (MERS aptamer-b) (ssDNA)
DNA: TGACACCGTACCTGCTCTCCGACCCATCTAGCACTTCACACACGCCCGATCGGATTAGTAAGCACGCCAAGGGACTAT
In turn, B2 gave a Kd in data set [1] of 287 ± 17.7 nM.

B3: S-19 aptamer (ssDNA)
DNA: TGACACCGTACCTGCTCTGCACTTCCTTCACCAGAAACCTGCACATCTTCGCCGCGTGAAGCACGCCAAGGGACTAT
In data set [1], B3 returned a Kd of 112 ± 3.89 nM.
